What was measured:
Hop1 = target: T1, Hop1 (Saccharomyces cerevisiae, UniProt P20050); assay: ITC (also ATP-agarose chromatography, UV crosslinking/filter binding, ATPase kinetics with Km […])
T1 construct: full-length His6-tagged WT Hop1
T1 sequence (P20050 1-605): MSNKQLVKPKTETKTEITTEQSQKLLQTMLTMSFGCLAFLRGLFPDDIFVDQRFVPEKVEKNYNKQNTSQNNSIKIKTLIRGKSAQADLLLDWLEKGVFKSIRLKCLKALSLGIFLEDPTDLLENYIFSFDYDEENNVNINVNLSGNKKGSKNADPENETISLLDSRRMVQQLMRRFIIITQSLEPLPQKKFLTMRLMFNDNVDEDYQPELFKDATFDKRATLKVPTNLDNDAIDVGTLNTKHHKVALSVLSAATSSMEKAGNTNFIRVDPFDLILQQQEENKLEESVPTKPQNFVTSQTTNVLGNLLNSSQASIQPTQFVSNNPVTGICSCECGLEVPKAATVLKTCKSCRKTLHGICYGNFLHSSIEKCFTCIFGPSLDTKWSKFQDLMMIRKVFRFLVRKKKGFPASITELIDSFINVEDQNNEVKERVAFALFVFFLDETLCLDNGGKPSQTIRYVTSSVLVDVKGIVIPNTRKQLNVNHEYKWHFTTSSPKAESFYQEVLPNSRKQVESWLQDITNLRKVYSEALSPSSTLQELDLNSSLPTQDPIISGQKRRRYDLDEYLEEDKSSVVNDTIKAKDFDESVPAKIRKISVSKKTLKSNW

Hop1 WT = target: T2, Hop1 WT (Saccharomyces cerevisiae, UniProt P20050 1-605); assay: MST; 25 nM HJ; EMSA: 25 mM HEPES pH 7.5, 0.5 nM 32P-HJ, 37 C 15 min, 8% PAGE in TBE (25 mM Tris base pH 8.0, 25 mM boric acid, 0.5 mM EDTA) at 4 C; MST: 25 nM 6-FAM HJ, buffer not in material; conditions: protein: recombinant; tags: N-terminal His6 (pET28a); label: 5'-6FAM on HJ02; four-way junction of 4 strands
T2 sequence: T1 sequence (P20050 1-605)

Hop1 HORMA domain = target: T3, Hop1 HORMA domain (S. cerevisiae, UniProt P20050 20-250, Red-tris-NTA label (in the MST only)); assay: MST; Red-tris-NTA labelled Hop1 HORMA domain fixed at 20 nM, Hop1-CTD titrated 0.00031 to 10 uM; incubated at 37°C for 15 min; Pico-RED, 5% excitation power; Hill model; apparent Kd; conditions: both partners purified
T3 construct: Hop1, S. cerevisiae, N-terminal HORMA domain; Amplified from pET28a-HOP1 and cloned NdeI/XhoI into pET14b; also called N-terminal HORMA domain; N-terminal region of Hop1; source: E. coli Rosetta (DE3), pET-14b, purified (Ni2+-NTA); not shown: His tag (inferred: Ni2+-NTA purification); Red-tris-NTA labelling; anti-His detection
T3 sequence (looked up): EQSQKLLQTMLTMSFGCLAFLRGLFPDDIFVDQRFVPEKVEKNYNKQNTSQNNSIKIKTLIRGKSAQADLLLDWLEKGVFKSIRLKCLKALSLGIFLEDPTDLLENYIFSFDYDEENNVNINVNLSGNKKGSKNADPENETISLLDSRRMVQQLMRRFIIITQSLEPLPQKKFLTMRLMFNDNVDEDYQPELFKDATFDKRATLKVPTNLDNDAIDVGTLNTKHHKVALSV

Nc1ncnc2c1ncn2C1OC(COP(=O)(O)OP(=O)(O)OP(=O)(O)O)C(O)C1O (stereo not drawn) [ATP]
Kd (Hop1): ~32900 nM

B1: Holliday junction (HJ), 6-FAM (structured_DNA)
DNA 1: GACGCTGCCGAATTCTACCAGTGCCTTGCTAGGACATCTTTGCCCACCTGCCGGTTCACCC
DNA 2: TGGGTGAACCTGCAGGTGGGCAAAGATGTCCTAGCAATGTAATCGTCAAAGCTTTATGCCGTT
DNA 3: CAACGGCATAAAGCTTGACGATTACATTGCTAGGACATGCTGTCTAGAGGATCCGACTATCGA
DNA 4: ATCGATAGTCGGATCCTCTAGACAGCATGTCCTAGCAAGGCACTGGTAGAATTCGGCAGCGT
Kd (Hop1 WT): 206 nM

B2: Hop1-CTD (domain or fragment)
chain: LSAATSSMEKAGNTNFIRVDPFDLILQQQEENKLEESVPTKPQNFVTSQTTNVLGNLLNSSQASIQPTQFVSNNPVTGICSCECGLEVPKAATVLKTCKSCRKTLHGICYGNFLHSSIEKCFTCIFGPSLDTKWSKFQDLMMIRKVFRFLVRKKKGFPASITELIDSFINVEDQNNEVKERVAFALFVFFLDETLCLDNGGKPSQTIRYVTSSVLVDVKGIVIPNTRKQLNVNHEYKWHFTTSSPKAESFYQEVLPNSRKQVESWLQDITNLRKVYSEALSPSSTLQELDLNSSLPTQDPIISGQKRRRYDLDEYLEEDKSSVVNDTIKAKDFDESVPAKIRKISVSKKTLKSNW
Kd (Hop1 HORMA domain): 1900 ± 500 nM

Source: paper PMC11797056, “The ATPase activity of yeast chromosome axis protein Hop1 affects the frequency of meiotic crossovers” (Nucleic Acids Research, 2024)
